{"source": "paper PMC3210020", "key": {"integrin αIIbβ3 (human) [1]": {"target": "integrin αIIbβ3 (human) (UniProt P05106)", "assay": "SPR"}, "integrin αIIbβ3 (human) [2]": {"target": "integrin αIIbβ3 (human) (UniProt P05106)", "assay": "SPR", "remark": "listed apart in the source"}, "[3]": {"target": "integrin αIIbβ3 (Homo sapiens) (UniProt P08514)", "settings": "cited from earlier work"}, "[4]": {"target": "integrin αIIbβ3 (Homo sapiens) (UniProt P08514)", "settings": "cited from earlier work", "remark": "listed apart in the source"}, "[5]": {"target": "integrin αIIbβ3 (Homo sapiens) (UniProt P08514)", "assay": "SPR", "settings": "cited from earlier work"}, "[6]": {"target": "integrin αIIbβ3 (Homo sapiens) (UniProt P08514)", "assay": "solid-phase binding", "settings": "cited from earlier work"}, "integrin αIIbβ3 (human) [7]": {"target": "integrin αIIbβ3 (human) (UniProt P05106)", "assay": "ELISA"}, "integrin αIIbβ3 (human) [8]": {"target": "integrin αIIbβ3 (human) (UniProt P05106)", "assay": "SPR", "remark": "listed apart in the source"}}, "note": "Read-outs that look alike come from different tables or passages of the source.", "data": [{"molecule": "human fibrinogen (plasma), (AαBβγ)2 (from UniProt P02671-2 36-644; P02675 45-491; P02679-2 27-437) (natural protein)", "values": [{"measurement": "Kd", "setting": "integrin αIIbβ3 (human) [1]", "result": 3.2, "unit": "nM"}, {"measurement": "dH", "setting": "integrin αIIbβ3 (human) [1]", "result": -11.7, "unit": "kcal/mol"}, {"measurement": "fold slower off rate at 15 °C than at 37 °C", "setting": "integrin αIIbβ3 (human) [1]", "result": 7, "unit": "fold"}, {"measurement": "fold slower on rate at 15 °C than at 37 °C", "setting": "integrin αIIbβ3 (human) [1]", "result": 2, "unit": "fold"}, {"measurement": "fold tighter binding at 15 °C than at 37 °C", "setting": "integrin αIIbβ3 (human) [1]", "result": 4, "unit": "fold"}, {"measurement": "koff", "setting": "integrin αIIbβ3 (human) [1]", "result": "7.01e-05", "unit": "s⁻¹"}, {"measurement": "kon", "setting": "integrin αIIbβ3 (human) [1]", "result": 21900, "unit": "M⁻¹ s⁻¹"}, {"measurement": "Kd", "setting": "integrin αIIbβ3 (human) [2]", "result": 4.42, "unit": "nM"}, {"measurement": "koff", "setting": "integrin αIIbβ3 (human) [2]", "result": "8.41e-05", "unit": "s⁻¹"}, {"measurement": "kon", "setting": "integrin αIIbβ3 (human) [2]", "result": 19000, "unit": "M⁻¹ s⁻¹"}]}, {"molecule": "normal recombinant fibrinogen (from UniProt P02671-2 36-644; P02675 45-491; P02679-2 27-437) (natural protein)", "values": [{"measurement": "kon", "setting": "integrin αIIbβ3 (human) [1]", "result": 21900, "unit": "M⁻¹ s⁻¹"}]}, {"molecule": "fibrinogen (from UniProt P02671)", "values": [{"measurement": "Kd", "setting": "[3]", "result": 50, "unit": "nM"}, {"measurement": "Kd", "setting": "[4]", "result": 165, "unit": "nM"}, {"measurement": "Kd", "setting": "[5]", "result": 3, "unit": "nM"}, {"measurement": "Kd", "setting": "[6]", "result": 60, "unit": "nM"}]}, {"molecule": "biotinylated fibrinogen (from UniProt P02671-2 36-644; P02675 45-491; P02679-2 27-437) (natural protein)", "values": [{"measurement": "midpoint of the saturable binding profile", "setting": "integrin αIIbβ3 (human) [7]", "result": 2, "unit": "nM"}]}, {"molecule": "eptifibatide (peptide)", "values": [{"measurement": "Ki", "setting": "integrin αIIbβ3 (human) [1]", "result": 0.4, "unit": "nM"}]}, {"molecule": "HHLGGAKQAGDV", "note": "[synthetic γ-module peptide …]", "values": [{"measurement": "percent reduction of the fibrinogen (100 nM) binding signal at 3 µM peptide", "setting": "integrin αIIbβ3 (human) [8]", "result": "< 10", "unit": "%"}]}]}
